Key:
[1] = target: Dopamine receptor D2 (D2R) peptide (N430-R443); experiment: ITC; MicroCal VP-ITC; 50 μM D2R peptide in the cell titrated with NCS-1; 25°C; 20 mM Tris-HCl pH 8.0, 150 mM NaCl, 5 mM CaCl2 and 100 μM ZnCl2; one set of sites model
[2] = target: Dopamine receptor D2 (D2R) peptide (N430-R443); experiment: ITC; MicroCal VP-ITC; 50 μM D2R peptide in the cell titrated with NCS-1 (1 mM stock, thirty 10 μl injections); 25°C; 20 mM Tris-HCl pH 8.0, 150 mM NaCl, 5 mM CaCl2; one set of sites model
[3] = target: GST-tagged N-terminal fragment of GRK1 (M1-G183) (UniProt P28327); experiment: pull-down; 50 μg GST-N-GRK1 immobilised on Glutathione Sepharose; 25 μM NCS-1 applied; 20 mM Tris pH 8.0, 150 mM NaCl, 1 mM DTT, 1 mM CaCl2 and 0-100 μM ZnCl2; 1 h at 4°C; bound NCS-1 detected by western blotting
Chain of UniProt P28327 (P28327 1-183): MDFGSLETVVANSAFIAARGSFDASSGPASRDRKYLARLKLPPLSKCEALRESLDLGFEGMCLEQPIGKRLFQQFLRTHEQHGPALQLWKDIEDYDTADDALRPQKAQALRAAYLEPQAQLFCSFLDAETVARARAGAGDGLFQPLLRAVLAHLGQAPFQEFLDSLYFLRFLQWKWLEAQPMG

**Q.** How did the Ka [1] turn out when “Neuronal calcium sensor-1 (recombinant myristoylated NCS-1) (from UniProt P62166 1-190) (natural protein)” was run?
**A.** 118000 M⁻¹

**Q.** What about the Kd [1] of the same substance?
**A.** 8.47 µM

**Q.** What about the dH [1] of the same substance?
**A.** -3.2 kcal/M

**Q.** And the stoichiometry N [1]?
**A.** 0.508

**Q.** And the Ka [2]?
**A.** 33200 M⁻¹

**Q.** And the Kd [2]?
**A.** 30.1 µM

**Q.** What about the dH [2] of the same substance?
**A.** -3 kcal/M

**Q.** And the stoichiometry N [2]?
**A.** 0.676

**Q.** What about the fold change of binding with 25 μM Zn^2+ against no Zn^2+ [3] of the same substance?
**A.** 2 fold

Reference: PMC6302015
